B1: Synaptogenesis protein syg-2 (Caenorhabditis elegans), Q9U3P2 (parent)
chain: MLSQAILLWLFGSIHISSQFFLESPSNLSTIAGESITFRCSAEKSPEPIVYSQWKSNTGSLLGYHQEGILPGHQGRFSYIKQNAEELHLKITHVNLDDDGEYECQMLHPEEGPIRAKSFLNIIVPPQLVYFSNYQPNSIIAVKENTPLNITCVVPNVKPEPEVLWYMDGKVMSRDVKQASTPHLNKTFTVYTSLVVQSDRNDHGKVITCEAFQKETDIRITTNTTLDVLFPPSDPTVEILRNPSALRSGDNVTIACSVTGGNPPPDVFWYHENKRLQSHSTLDTRSKEIKNIYSFIASQNDNMAEYECRANNSRTGNPKRKAMKLEVNYPPASVELFGESNIRYGSSANIQCKSLPSNPASQITWIINGRSVPTPTQREFVVENGIVSSSNVSVHSNELSVEAHQINVECMATNPEGSSAKQHVIKIIAPPKAPIITGLEDRKFFEGDIVNVTCEAQGGNPLAELSWYRGSEKHLVKGRKKMKWSQVKKKLVMSLLCLCEVVIMNFFRFSKNVFYFFRFTLFIECGVNGAHNEVAGFSSYSTLALRVDRTMNTQRLKCEATNAALDEPLIESQYLSVYYPPRRVLIRPADSGDQRLLVGKSARLVCGTLSSNPAAHISWQFSRATDDNKVHLGDVSLNETTRDNGFNVENVLSFTPTEEYDGTVVHCIANHPEWKHSVNTSFPLNVMYPPKMLVNDPVTVVMSEGDSFKENLTVRGNPAISLWQWRKNGVPFDHTIGRVFARGAVLSGKQLLSTDAGVYTLTATNSVGSTNITIKLAVEYSARITSISTPVIAATGDTVLLECEADGEPSKANMIHWYKNGEILAAQHRGHKKAILRLNATEQQSGEYTCKADNGIGVPAEGQTFLLVNSAPRVLPVARYAKTAGILGGVAKARCKVYAVPTVEFVWEKDEQLIKKNSSKYSIVNTQIDYSTYESTLWIKNIVPDDYTKKVKCIARNSFGTDHLSIPIIPPTHPDEPFNLTMTNSTLNTISVAWEPRFDGGSDQIFEVKYRRQNDDLIHLVNTTHTNLRLSGLATANTYFFQIRSINARGFASSWTSPVIFATLNEDGVNVAMIRNEKLKLTTWIPYILIFIVLFMLLNVVICCFVCNRTKKRKLREKTEMARTAINGGDVRQVQMYGTMMGNDGMSRRDIDDRPEMSEDEHSVRTMIEVSPNGYMQPIEPMLYESTGLLEYDYQTRSYMGSSQGTRSMTYANVPYPEPPQPSYHSNWNSLQRQSNNNTSPQHHLSTFINPNMGVRAGPINYAQLDGDLV
partner: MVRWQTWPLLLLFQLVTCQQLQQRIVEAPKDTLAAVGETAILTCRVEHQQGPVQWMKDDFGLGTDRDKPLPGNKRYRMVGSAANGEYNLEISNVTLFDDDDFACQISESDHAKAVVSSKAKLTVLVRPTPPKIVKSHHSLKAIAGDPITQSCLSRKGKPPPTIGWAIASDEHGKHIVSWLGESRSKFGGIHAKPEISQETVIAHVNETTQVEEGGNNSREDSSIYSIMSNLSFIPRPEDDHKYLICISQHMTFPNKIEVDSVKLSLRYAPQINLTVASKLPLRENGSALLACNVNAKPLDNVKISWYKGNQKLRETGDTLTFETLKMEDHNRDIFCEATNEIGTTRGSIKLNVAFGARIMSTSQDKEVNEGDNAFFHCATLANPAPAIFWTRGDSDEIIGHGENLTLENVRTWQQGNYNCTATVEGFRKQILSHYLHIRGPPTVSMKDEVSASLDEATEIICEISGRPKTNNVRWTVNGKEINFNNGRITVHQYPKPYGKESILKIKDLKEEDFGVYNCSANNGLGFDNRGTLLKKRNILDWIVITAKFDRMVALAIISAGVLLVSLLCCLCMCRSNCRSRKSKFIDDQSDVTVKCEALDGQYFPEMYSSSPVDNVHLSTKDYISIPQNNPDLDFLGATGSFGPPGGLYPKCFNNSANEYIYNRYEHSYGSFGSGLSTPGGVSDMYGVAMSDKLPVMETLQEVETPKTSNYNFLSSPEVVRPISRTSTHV
B2: Synaptogenesis protein syg-1 (Caenorhabditis elegans), B1Q236 (parent)
chain: B1 partner
partner: B1 chain

Variants of: B1
Conditions: with syg1_caeel syg-1, B1Q236
In the case of Q53A, the “effect of a mutation on the interaction” value is reported as “decreasing interaction strength”. In the case of L61A, the “effect of a mutation on the interaction” value is reported as “decreasing interaction strength”. Q105A was tested, and the “effect of a mutation on the interaction” value was “disrupting interaction strength”. R115A was tested, and the “effect of a mutation on the interaction” value was “decreasing interaction strength”.

Variants of: B2
Conditions: with syg2_caeel syg-2, Q9U3P2
With Q54A the “effect of a mutation on the interaction” value was “decreasing interaction strength”. In the case of Q54A;F60A, the “effect of a mutation on the interaction” value is reported as “disrupting interaction strength”. Q54A;M56A;F60A;S107A was tested, and the “effect of a mutation on the interaction” value was “disrupting interaction strength”. F60A was tested, and the “effect of a mutation on the interaction” value was “disrupting interaction strength”. For Q105A, the “effect of a mutation on the interaction” value was “decreasing interaction strength”.

From IntAct's records for PubMed 24485456
